The source of these data is patent publication US20250171562A1.

Usually EC50 stands for the concentration needed to bring the measured effect to its halfway point.

First the molecules themselves.
B1: NIgG4E4A1(G4S)3 (Fc fusion)
chain 1: DVQLQESGGGLVQPGGSLRLSCAASGFRFSNYAMRWYRQAPGKEREFVARISSTGFITRYTASVRDRFTISRDNDKNMMYLQLNKLTPQDTAHYYCNAESTDYWGQGTQVTVSGGGGSGGGGSGGGGSGPPCPPCPAPEFLGGPSVFLFPPKPKDTLMISRTPEVTCVVVDVSQEDPEVQFNWYVDGVEVHNAKTKPREEQFNSTYRVVSVLTVLHQDWLNGKEYKCKVSNKGLPSSIEKTISKAKGQPREPQVYTLPPCQEEMTKNQVSLWCLVKGFYPSDIAVEWESNGQPENNYKTTPPVLDSDGSFFLYSRLTVDKSRWQEGNVFSCSVMHEALHNHYTQKSLSLSLGK
chain 2: EVQLLESGGGLVQPGGSLRLSCAASGFTFGNYDMAWVRQAPGKRPEWVSSIDTGGDITHYADSVKGRFTISRDNAKNTLYLQMNSLRPEDTAVYWCATDEEYALGPNEFDYYGQGTLVTVSSGGGGSGGGGSGGGGSGPPCPPCPAPEFLGGPSVFLFPPKPKDTLMISRTPEVTCVVVDVSQEDPEVQFNWYVDGVEVHNAKTKPREEQFNSTYRVVSVLTVLHQDWLNGKEYKCKVSNKGLPSSIEKTISKAKGQPREPQVCTLPPSQEEMTKNQVSLSCAVKGFYPSDIAVEWESNGQPENNYKTTPPVLDSDGSFFLVSRLTVDKSRWQEGNVFSCSVMHEALHNHYTQKSLSLSLGK
B2: CIgG4E4A1(G4S)2 (Fc fusion)
chain 1: GPPCPPCPAPEFLGGPSVFLFPPKPKDTLMISRTPEVTCVVVDVSQEDPEVQFNWYVDGVEVHNAKTKPREEQFNSTYRVVSVLTVLHQDWLNGKEYKCKVSNKGLPSSIEKTISKAKGQPREPQVYTLPPCQEEMTKNQVSLWCLVKGFYPSDIAVEWESNGQPENNYKTTPPVLDSDGSFFLYSRLTVDKSRWQEGNVFSCSVMHEALHNHYTQKSLSLSLGKGGGGSGGGGSDVQLQESGGGLVQPGGSLRLSCAASGFRFSNYAMRWYRQAPGKEREFVARISSTGFITRYTASVRDRFTISRDNDKNMMYLQLNKLTPQDTAHYYCNAESTDYWGQGTQVTVS
chain 2: GPPCPPCPAPEFLGGPSVFLFPPKPKDTLMISRTPEVTCVVVDVSQEDPEVQFNWYVDGVEVHNAKTKPREEQFNSTYRVVSVLTVLHQDWLNGKEYKCKVSNKGLPSSIEKTISKAKGQPREPQVCTLPPSQEEMTKNQVSLSCAVKGFYPSDIAVEWESNGQPENNYKTTPPVLDSDGSFFLVSRLTVDKSRWQEGNVFSCSVMHEALHNHYTQKSLSLSLGKGGGGSGGGGSEVQLLESGGGLVQPGGSLRLSCAASGFTFGNYDMAWVRQAPGKRPEWVSSIDTGGDITHYADSVKGRFTISRDNAKNTLYLQMNSLRPEDTAVYWCATDEEYALGPNEFDYYGQGTLVTVSS
B3: CIgG4E4A1(G4S)1 (Fc fusion)
chain 1: GPPCPPCPAPEFLGGPSVFLFPPKPKDTLMISRTPEVTCVVVDVSQEDPEVQFNWYVDGVEVHNAKTKPREEQFNSTYRVVSVLTVLHQDWLNGKEYKCKVSNKGLPSSIEKTISKAKGQPREPQVYTLPPCQEEMTKNQVSLWCLVKGFYPSDIAVEWESNGQPENNYKTTPPVLDSDGSFFLYSRLTVDKSRWQEGNVFSCSVMHEALHNHYTQKSLSLSLGKGGGGSDVQLQESGGGLVQPGGSLRLSCAASGFRFSNYAMRWYRQAPGKEREFVARISSTGFITRYTASVRDRFTISRDNDKNMMYLQLNKLTPQDTAHYYCNAESTDYWGQGTQVTVS
chain 2: GPPCPPCPAPEFLGGPSVFLFPPKPKDTLMISRTPEVTCVVVDVSQEDPEVQFNWYVDGVEVHNAKTKPREEQFNSTYRVVSVLTVLHQDWLNGKEYKCKVSNKGLPSSIEKTISKAKGQPREPQVCTLPPSQEEMTKNQVSLSCAVKGFYPSDIAVEWESNGQPENNYKTTPPVLDSDGSFFLVSRLTVDKSRWQEGNVFSCSVMHEALHNHYTQKSLSLSLGKGGGGSEVQLLESGGGLVQPGGSLRLSCAASGFTFGNYDMAWVRQAPGKRPEWVSSIDTGGDITHYADSVKGRFTISRDNAKNTLYLQMNSLRPEDTAVYWCATDEEYALGPNEFDYYGQGTLVTVSS
B4: NIgG4F1A1(RS) (Fc fusion)
chain 1: DVQLQESGGGLVQAGGSLKLSCAASGGSLSRYDMGWFRQAPGKEREFVARISWSGTTKYYADAVKGRFAISRDNAKNTVYLQMNSLKPEDTAVYYCAAAFYGNRGYYDVNAYTSSGQGTQVTVSRSGPPCPPCPAPEFLGGPSVFLFPPKPKDTLMISRTPEVTCVVVDVSQEDPEVQFNWYVDGVEVHNAKTKPREEQFNSTYRVVSVLTVLHQDWLNGKEYKCKVSNKGLPSSIEKTISKAKGQPREPQVYTLPPCQEEMTKNQVSLWCLVKGFYPSDIAVEWESNGQPENNYKTTPPVLDSDGSFFLYSRLTVDKSRWQEGNVFSCSVMHEALHNHYTQKSLSLSLGK
chain 2: EVQLLESGGGLVQPGGSLRLSCAASGFTFGNYDMAWVRQAPGKRPEWVSSIDTGGDITHYADSVKGRFTISRDNAKNTLYLQMNSLRPEDTAVYWCATDEEYALGPNEFDYYGQGTLVTVSSRSGPPCPPCPAPEFLGGPSVFLFPPKPKDTLMISRTPEVTCVVVDVSQEDPEVQFNWYVDGVEVHNAKTKPREEQFNSTYRVVSVLTVLHQDWLNGKEYKCKVSNKGLPSSIEKTISKAKGQPREPQVCTLPPSQEEMTKNQVSLSCAVKGFYPSDIAVEWESNGQPENNYKTTPPVLDSDGSFFLVSRLTVDKSRWQEGNVFSCSVMHEALHNHYTQKSLSLSLGK
B5: NIgG4F1A1(G4S)1 (Fc fusion)
chain 1: DVQLQESGGGLVQAGGSLKLSCAASGGSLSRYDMGWFRQAPGKEREFVARISWSGTTKYYADAVKGRFAISRDNAKNTVYLQMNSLKPEDTAVYYCAAAFYGNRGYYDVNAYTSSGQGTQVTVSGGGGSGPPCPPCPAPEFLGGPSVFLFPPKPKDTLMISRTPEVTCVVVDVSQEDPEVQFNWYVDGVEVHNAKTKPREEQFNSTYRVVSVLTVLHQDWLNGKEYKCKVSNKGLPSSIEKTISKAKGQPREPQVYTLPPCQEEMTKNQVSLWCLVKGFYPSDIAVEWESNGQPENNYKTTPPVLDSDGSFFLYSRLTVDKSRWQEGNVFSCSVMHEALHNHYTQKSLSLSLGK
chain 2: EVQLLESGGGLVQPGGSLRLSCAASGFTFGNYDMAWVRQAPGKRPEWVSSIDTGGDITHYADSVKGRFTISRDNAKNTLYLQMNSLRPEDTAVYWCATDEEYALGPNEFDYYGQGTLVTVSSGGGGSGPPCPPCPAPEFLGGPSVFLFPPKPKDTLMISRTPEVTCVVVDVSQEDPEVQFNWYVDGVEVHNAKTKPREEQFNSTYRVVSVLTVLHQDWLNGKEYKCKVSNKGLPSSIEKTISKAKGQPREPQVCTLPPSQEEMTKNQVSLSCAVKGFYPSDIAVEWESNGQPENNYKTTPPVLDSDGSFFLVSRLTVDKSRWQEGNVFSCSVMHEALHNHYTQKSLSLSLGK
B6: CIgG4E4A1(RS) (Fc fusion)
chain 1: GPPCPPCPAPEFLGGPSVFLFPPKPKDTLMISRTPEVTCVVVDVSQEDPEVQFNWYVDGVEVHNAKTKPREEQFNSTYRVVSVLTVLHQDWLNGKEYKCKVSNKGLPSSIEKTISKAKGQPREPQVYTLPPCQEEMTKNQVSLWCLVKGFYPSDIAVEWESNGQPENNYKTTPPVLDSDGSFFLYSRLTVDKSRWQEGNVFSCSVMHEALHNHYTQKSLSLSLGKRSDVQLQESGGGLVQPGGSLRLSCAASGFRFSNYAMRWYRQAPGKEREFVARISSTGFITRYTASVRDRFTISRDNDKNMMYLQLNKLTPQDTAHYYCNAESTDYWGQGTQVTVS
chain 2: GPPCPPCPAPEFLGGPSVFLFPPKPKDTLMISRTPEVTCVVVDVSQEDPEVQFNWYVDGVEVHNAKTKPREEQFNSTYRVVSVLTVLHQDWLNGKEYKCKVSNKGLPSSIEKTISKAKGQPREPQVCTLPPSQEEMTKNQVSLSCAVKGFYPSDIAVEWESNGQPENNYKTTPPVLDSDGSFFLVSRLTVDKSRWQEGNVFSCSVMHEALHNHYTQKSLSLSLGKRSEVQLLESGGGLVQPGGSLRLSCAASGFTFGNYDMAWVRQAPGKRPEWVSSIDTGGDITHYADSVKGRFTISRDNAKNTLYLQMNSLRPEDTAVYWCATDEEYALGPNEFDYYGQGTLVTVSS
B7: NIgG4E4A1(G4S)2 (Fc fusion)
chain 1: DVQLQESGGGLVQPGGSLRLSCAASGFRFSNYAMRWYRQAPGKEREFVARISSTGFITRYTASVRDRFTISRDNDKNMMYLQLNKLTPQDTAHYYCNAESTDYWGQGTQVTVSGGGGSGGGGSGPPCPPCPAPEFLGGPSVFLFPPKPKDTLMISRTPEVTCVVVDVSQEDPEVQFNWYVDGVEVHNAKTKPREEQFNSTYRVVSVLTVLHQDWLNGKEYKCKVSNKGLPSSIEKTISKAKGQPREPQVYTLPPCQEEMTKNQVSLWCLVKGFYPSDIAVEWESNGQPENNYKTTPPVLDSDGSFFLYSRLTVDKSRWQEGNVFSCSVMHEALHNHYTQKSLSLSLGK
chain 2: EVQLLESGGGLVQPGGSLRLSCAASGFTFGNYDMAWVRQAPGKRPEWVSSIDTGGDITHYADSVKGRFTISRDNAKNTLYLQMNSLRPEDTAVYWCATDEEYALGPNEFDYYGQGTLVTVSSGGGGSGGGGSGPPCPPCPAPEFLGGPSVFLFPPKPKDTLMISRTPEVTCVVVDVSQEDPEVQFNWYVDGVEVHNAKTKPREEQFNSTYRVVSVLTVLHQDWLNGKEYKCKVSNKGLPSSIEKTISKAKGQPREPQVCTLPPSQEEMTKNQVSLSCAVKGFYPSDIAVEWESNGQPENNYKTTPPVLDSDGSFFLVSRLTVDKSRWQEGNVFSCSVMHEALHNHYTQKSLSLSLGK
B8: CIgG4E4A1(G4S)3 (Fc fusion)
chain 1: GPPCPPCPAPEFLGGPSVFLFPPKPKDTLMISRTPEVTCVVVDVSQEDPEVQFNWYVDGVEVHNAKTKPREEQFNSTYRVVSVLTVLHQDWLNGKEYKCKVSNKGLPSSIEKTISKAKGQPREPQVYTLPPCQEEMTKNQVSLWCLVKGFYPSDIAVEWESNGQPENNYKTTPPVLDSDGSFFLYSRLTVDKSRWQEGNVFSCSVMHEALHNHYTQKSLSLSLGKGGGGSGGGGSGGGGSDVQLQESGGGLVQPGGSLRLSCAASGFRFSNYAMRWYRQAPGKEREFVARISSTGFITRYTASVRDRFTISRDNDKNMMYLQLNKLTPQDTAHYYCNAESTDYWGQGTQVTVS
chain 2: GPPCPPCPAPEFLGGPSVFLFPPKPKDTLMISRTPEVTCVVVDVSQEDPEVQFNWYVDGVEVHNAKTKPREEQFNSTYRVVSVLTVLHQDWLNGKEYKCKVSNKGLPSSIEKTISKAKGQPREPQVCTLPPSQEEMTKNQVSLSCAVKGFYPSDIAVEWESNGQPENNYKTTPPVLDSDGSFFLVSRLTVDKSRWQEGNVFSCSVMHEALHNHYTQKSLSLSLGKGGGGSGGGGSGGGGSEVQLLESGGGLVQPGGSLRLSCAASGFTFGNYDMAWVRQAPGKRPEWVSSIDTGGDITHYADSVKGRFTISRDNAKNTLYLQMNSLRPEDTAVYWCATDEEYALGPNEFDYYGQGTLVTVSS

For the assay, the target named is mixture of three Der p 2 specific recombinant human IgE clones H10, H12, P4E (human) (UniProt P01854). In words: RBL-SX38 IgE displacement, FACS.
mixture of three Der p 2 specific recombinant human IgE clones H10, H12, P4E (human), sequence (P01854 other isoform, or with tags, fused parts or gaps): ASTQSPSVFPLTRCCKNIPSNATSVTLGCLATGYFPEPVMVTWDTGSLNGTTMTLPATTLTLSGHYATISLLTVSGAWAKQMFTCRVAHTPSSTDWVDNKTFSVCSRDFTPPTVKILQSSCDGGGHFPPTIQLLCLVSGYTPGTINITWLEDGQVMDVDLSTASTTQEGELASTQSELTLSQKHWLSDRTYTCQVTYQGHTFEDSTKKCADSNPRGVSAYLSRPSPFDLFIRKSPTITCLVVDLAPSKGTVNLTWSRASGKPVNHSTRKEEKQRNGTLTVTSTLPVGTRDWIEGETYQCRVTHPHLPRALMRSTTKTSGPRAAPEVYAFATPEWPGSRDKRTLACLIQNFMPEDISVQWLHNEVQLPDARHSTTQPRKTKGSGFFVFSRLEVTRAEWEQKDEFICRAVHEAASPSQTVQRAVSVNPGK
With B1, the EC50 was 36 nM and the Max effect/effect 1 µM amounted to 92%.
For B2 the same measures were 107 nM and 94%.
For B3, the half-maximal effective concentration (EC50) came out at 242 nM and the Max effect/effect 1 µM worked out at 87%.
In the same order, the values of B4 are 3.5 nM and 88%.
In the same order, the values of B5 are 2.6 nM and 92%.
For B6, the Max effect/effect 1 µM was determined as 0%.
As for B7, the concentration for a half-maximal effect (EC50) came to 16.4 nM and the Max effect/effect 1 µM is 98%.
For B8 the same measures were 31.6 nM and 98%.
